Data reported in patent publication US20170355769A1 (AbbVie / Abbott, published 2017).

T1: Human full length B7-H3 (human, UniProt Q5ZPR3 29-534)
T1 sequence: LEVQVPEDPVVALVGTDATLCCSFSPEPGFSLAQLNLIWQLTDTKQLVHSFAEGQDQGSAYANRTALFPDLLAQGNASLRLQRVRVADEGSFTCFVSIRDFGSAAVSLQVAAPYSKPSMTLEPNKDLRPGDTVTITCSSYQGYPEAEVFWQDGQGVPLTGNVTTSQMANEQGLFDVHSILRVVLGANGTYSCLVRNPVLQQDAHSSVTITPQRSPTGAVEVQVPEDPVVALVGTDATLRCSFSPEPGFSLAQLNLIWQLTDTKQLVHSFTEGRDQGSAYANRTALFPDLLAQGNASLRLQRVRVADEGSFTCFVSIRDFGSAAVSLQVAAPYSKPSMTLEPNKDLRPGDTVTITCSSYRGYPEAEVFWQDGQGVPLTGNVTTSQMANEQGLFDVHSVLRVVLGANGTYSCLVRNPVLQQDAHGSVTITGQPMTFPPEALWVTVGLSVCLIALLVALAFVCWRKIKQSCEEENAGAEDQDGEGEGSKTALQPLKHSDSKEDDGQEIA

B1: huAb13v1-TV (antibody, human IgG1, kappa, L234A L235A, V domains shown)
VH: EVQLQESGPGLVKPSETLSLTCAVTGYSITSGYSWHWIRQFPGNGLEWMGYIHSSGSTNYNPSLKSRISISRDTSKNQFFLKLSSVTAADTAVYYCAGYDDYFEYWGQGTTVTVSS
VL: DIQMTQSPSSLSASVGDRVTITCKASQNVGFNVAWYQQKPGKSPKALIYSASYRYSGVPSRFSGSGSGTDFTLTISSLQPEDFAEYFCQQYNWYPFTFGQGTKLEIKR
modifications: synthon TV on reduced interchain Cys
B2: huAb13v1-AAD (antibody, human IgG1, kappa, L234A L235A, V domains shown)
VH: EVQLQESGPGLVKPSETLSLTCAVTGYSITSGYSWHWIRQFPGNGLEWMGYIHSSGSTNYNPSLKSRISISRDTSKNQFFLKLSSVTAADTAVYYCAGYDDYFEYWGQGTTVTVSS
VL: DIQMTQSPSSLSASVGDRVTITCKASQNVGFNVAWYQQKPGKSPKALIYSASYRYSGVPSRFSGSGSGTDFTLTISSLQPEDFAEYFCQQYNWYPFTFGQGTKLEIKR
modifications: synthon AAD on reduced interchain Cys
B3: huAb13v1-WD (antibody, human IgG1, kappa, L234A L235A, V domains shown)
VH: EVQLQESGPGLVKPSETLSLTCAVTGYSITSGYSWHWIRQFPGNGLEWMGYIHSSGSTNYNPSLKSRISISRDTSKNQFFLKLSSVTAADTAVYYCAGYDDYFEYWGQGTTVTVSS
VL: DIQMTQSPSSLSASVGDRVTITCKASQNVGFNVAWYQQKPGKSPKALIYSASYRYSGVPSRFSGSGSGTDFTLTISSLQPEDFAEYFCQQYNWYPFTFGQGTKLEIKR
modifications: synthon WD on reduced interchain Cys
B4: huAb13v1-AAA (antibody, human IgG1, kappa, L234A L235A, V domains shown)
VH: EVQLQESGPGLVKPSETLSLTCAVTGYSITSGYSWHWIRQFPGNGLEWMGYIHSSGSTNYNPSLKSRISISRDTSKNQFFLKLSSVTAADTAVYYCAGYDDYFEYWGQGTTVTVSS
VL: DIQMTQSPSSLSASVGDRVTITCKASQNVGFNVAWYQQKPGKSPKALIYSASYRYSGVPSRFSGSGSGTDFTLTISSLQPEDFAEYFCQQYNWYPFTFGQGTKLEIKR
modifications: synthon AAA on reduced interchain Cys
B5: huAb3v2.5-KZ (antibody, human IgG1, kappa, L234A L235A, V domains shown)
VH: EVQLVQSGAEVKKPGSSVKVSCKASGYTFSSYWMHWVRQAPGQGLEWIGLIHPESGSTNYNEMFKNRATLTVDRSTSTAYMELSSLRSEDTAVYYCAGGGRLYFDYWGQGTTVTVSS
VL: DIVMTQSPLSLPVTPGEPASISCRSSQSLVHSNRDTYLRWYLQKPGQSPQLLIYKVSNRFSGVPDRFSGSGSGTDFTLKISRVEAEDVGVYYCSQSTHVPYTFGGGTKVEIKR
modifications: synthon KZ on reduced interchain Cys
B6: huAb3v2.6-TX (antibody, human IgG1, kappa, L234A L235A, V domains shown)
VH: EVQLVQSGAEVKKPGSSVKVSCKASGYTFSSYWMHWVRQAPGQGLEWIGLIHPESGSTNYNEMFKNRATLTVDRSTSTAYMELSSLRSEDTAVYYCAGGGRLYFDYWGQGTTVTVSS
VL: DIVMTQSPLSLPVTPGEPASISCRSSQSLVHSNQDTYLRWYLQKPGQSPQLLIYKVSNRFSGVPDRFSGSGSGTDFTLKISRVEAEDVGVYYCSQSTHVPYTFGGGTKVEIKR
modifications: synthon TX on reduced interchain Cys
B7: huAb3v2.6-KZ (antibody, human IgG1, kappa, L234A L235A, V domains shown)
VH: EVQLVQSGAEVKKPGSSVKVSCKASGYTFSSYWMHWVRQAPGQGLEWIGLIHPESGSTNYNEMFKNRATLTVDRSTSTAYMELSSLRSEDTAVYYCAGGGRLYFDYWGQGTTVTVSS
VL: DIVMTQSPLSLPVTPGEPASISCRSSQSLVHSNQDTYLRWYLQKPGQSPQLLIYKVSNRFSGVPDRFSGSGSGTDFTLKISRVEAEDVGVYYCSQSTHVPYTFGGGTKVEIKR
modifications: synthon KZ on reduced interchain Cys
B8: huAb3v2.6-TV (antibody, human IgG1, kappa, L234A L235A, V domains shown)
VH: EVQLVQSGAEVKKPGSSVKVSCKASGYTFSSYWMHWVRQAPGQGLEWIGLIHPESGSTNYNEMFKNRATLTVDRSTSTAYMELSSLRSEDTAVYYCAGGGRLYFDYWGQGTTVTVSS
VL: DIVMTQSPLSLPVTPGEPASISCRSSQSLVHSNQDTYLRWYLQKPGQSPQLLIYKVSNRFSGVPDRFSGSGSGTDFTLKISRVEAEDVGVYYCSQSTHVPYTFGGGTKVEIKR
modifications: synthon TV on reduced interchain Cys
B9: huAb3v2.6-AAD (antibody, human IgG1, kappa, L234A L235A, V domains shown)
VH: EVQLVQSGAEVKKPGSSVKVSCKASGYTFSSYWMHWVRQAPGQGLEWIGLIHPESGSTNYNEMFKNRATLTVDRSTSTAYMELSSLRSEDTAVYYCAGGGRLYFDYWGQGTTVTVSS
VL: DIVMTQSPLSLPVTPGEPASISCRSSQSLVHSNQDTYLRWYLQKPGQSPQLLIYKVSNRFSGVPDRFSGSGSGTDFTLKISRVEAEDVGVYYCSQSTHVPYTFGGGTKVEIKR
modifications: synthon AAD on reduced interchain Cys
B10: huAb3v2.6-YY (antibody, human IgG1, kappa, L234A L235A, V domains shown)
VH: EVQLVQSGAEVKKPGSSVKVSCKASGYTFSSYWMHWVRQAPGQGLEWIGLIHPESGSTNYNEMFKNRATLTVDRSTSTAYMELSSLRSEDTAVYYCAGGGRLYFDYWGQGTTVTVSS
VL: DIVMTQSPLSLPVTPGEPASISCRSSQSLVHSNQDTYLRWYLQKPGQSPQLLIYKVSNRFSGVPDRFSGSGSGTDFTLKISRVEAEDVGVYYCSQSTHVPYTFGGGTKVEIKR
modifications: synthon YY on reduced interchain Cys
B11: huAb3v2.6-YG (antibody, human IgG1, kappa, L234A L235A, V domains shown)
VH: EVQLVQSGAEVKKPGSSVKVSCKASGYTFSSYWMHWVRQAPGQGLEWIGLIHPESGSTNYNEMFKNRATLTVDRSTSTAYMELSSLRSEDTAVYYCAGGGRLYFDYWGQGTTVTVSS
VL: DIVMTQSPLSLPVTPGEPASISCRSSQSLVHSNQDTYLRWYLQKPGQSPQLLIYKVSNRFSGVPDRFSGSGSGTDFTLKISRVEAEDVGVYYCSQSTHVPYTFGGGTKVEIKR
modifications: synthon YG on reduced interchain Cys
B12: huAb3v2.6-XW (antibody, human IgG1, kappa, L234A L235A, V domains shown)
VH: EVQLVQSGAEVKKPGSSVKVSCKASGYTFSSYWMHWVRQAPGQGLEWIGLIHPESGSTNYNEMFKNRATLTVDRSTSTAYMELSSLRSEDTAVYYCAGGGRLYFDYWGQGTTVTVSS
VL: DIVMTQSPLSLPVTPGEPASISCRSSQSLVHSNQDTYLRWYLQKPGQSPQLLIYKVSNRFSGVPDRFSGSGSGTDFTLKISRVEAEDVGVYYCSQSTHVPYTFGGGTKVEIKR
modifications: synthon XW on reduced interchain Cys
B13: huAb3v2.6-ZT (antibody, human IgG1, kappa, L234A L235A, V domains shown)
VH: EVQLVQSGAEVKKPGSSVKVSCKASGYTFSSYWMHWVRQAPGQGLEWIGLIHPESGSTNYNEMFKNRATLTVDRSTSTAYMELSSLRSEDTAVYYCAGGGRLYFDYWGQGTTVTVSS
VL: DIVMTQSPLSLPVTPGEPASISCRSSQSLVHSNQDTYLRWYLQKPGQSPQLLIYKVSNRFSGVPDRFSGSGSGTDFTLKISRVEAEDVGVYYCSQSTHVPYTFGGGTKVEIKR
modifications: synthon ZT on reduced interchain Cys
B14: huAb3v2.6-SR (antibody, human IgG1, kappa, L234A L235A, V domains shown)
VH: EVQLVQSGAEVKKPGSSVKVSCKASGYTFSSYWMHWVRQAPGQGLEWIGLIHPESGSTNYNEMFKNRATLTVDRSTSTAYMELSSLRSEDTAVYYCAGGGRLYFDYWGQGTTVTVSS
VL: DIVMTQSPLSLPVTPGEPASISCRSSQSLVHSNQDTYLRWYLQKPGQSPQLLIYKVSNRFSGVPDRFSGSGSGTDFTLKISRVEAEDVGVYYCSQSTHVPYTFGGGTKVEIKR
modifications: synthon SR on reduced interchain Cys
B15: huAb3v2.6-SE (antibody, human IgG1, kappa, L234A L235A, V domains shown)
VH: EVQLVQSGAEVKKPGSSVKVSCKASGYTFSSYWMHWVRQAPGQGLEWIGLIHPESGSTNYNEMFKNRATLTVDRSTSTAYMELSSLRSEDTAVYYCAGGGRLYFDYWGQGTTVTVSS
VL: DIVMTQSPLSLPVTPGEPASISCRSSQSLVHSNQDTYLRWYLQKPGQSPQLLIYKVSNRFSGVPDRFSGSGSGTDFTLKISRVEAEDVGVYYCSQSTHVPYTFGGGTKVEIKR
modifications: synthon SE on reduced interchain Cys
B16: huAb3v2.6-WD (antibody, human IgG1, kappa, L234A L235A, V domains shown)
VH: EVQLVQSGAEVKKPGSSVKVSCKASGYTFSSYWMHWVRQAPGQGLEWIGLIHPESGSTNYNEMFKNRATLTVDRSTSTAYMELSSLRSEDTAVYYCAGGGRLYFDYWGQGTTVTVSS
VL: DIVMTQSPLSLPVTPGEPASISCRSSQSLVHSNQDTYLRWYLQKPGQSPQLLIYKVSNRFSGVPDRFSGSGSGTDFTLKISRVEAEDVGVYYCSQSTHVPYTFGGGTKVEIKR
modifications: synthon WD on reduced interchain Cys
B17: huAb3v2.6-ZZ (antibody, human IgG1, kappa, L234A L235A, V domains shown)
VH: EVQLVQSGAEVKKPGSSVKVSCKASGYTFSSYWMHWVRQAPGQGLEWIGLIHPESGSTNYNEMFKNRATLTVDRSTSTAYMELSSLRSEDTAVYYCAGGGRLYFDYWGQGTTVTVSS
VL: DIVMTQSPLSLPVTPGEPASISCRSSQSLVHSNQDTYLRWYLQKPGQSPQLLIYKVSNRFSGVPDRFSGSGSGTDFTLKISRVEAEDVGVYYCSQSTHVPYTFGGGTKVEIKR
modifications: synthon ZZ on reduced interchain Cys
B18: huAb3v2.6-AAA (antibody, human IgG1, kappa, L234A L235A, V domains shown)
VH: EVQLVQSGAEVKKPGSSVKVSCKASGYTFSSYWMHWVRQAPGQGLEWIGLIHPESGSTNYNEMFKNRATLTVDRSTSTAYMELSSLRSEDTAVYYCAGGGRLYFDYWGQGTTVTVSS
VL: DIVMTQSPLSLPVTPGEPASISCRSSQSLVHSNQDTYLRWYLQKPGQSPQLLIYKVSNRFSGVPDRFSGSGSGTDFTLKISRVEAEDVGVYYCSQSTHVPYTFGGGTKVEIKR
modifications: synthon AAA on reduced interchain Cys
B19: huAb3v2.6-LB (antibody, human IgG1, kappa, L234A L235A, V domains shown)
VH: EVQLVQSGAEVKKPGSSVKVSCKASGYTFSSYWMHWVRQAPGQGLEWIGLIHPESGSTNYNEMFKNRATLTVDRSTSTAYMELSSLRSEDTAVYYCAGGGRLYFDYWGQGTTVTVSS
VL: DIVMTQSPLSLPVTPGEPASISCRSSQSLVHSNQDTYLRWYLQKPGQSPQLLIYKVSNRFSGVPDRFSGSGSGTDFTLKISRVEAEDVGVYYCSQSTHVPYTFGGGTKVEIKR
modifications: synthon LB on reduced interchain Cys

Biological target: T1, Human full length B7-H3
Experiment: cell-based or functional assay

Going from B1 to B2, the “EC50 nM H1650 (tumor cell cytotoxicity)” value falls from 0.43 nM to 0.21 nM (2-fold).

B3 and B4 are within 1.5-fold of each other in “EC50 nM H1650 (tumor cell cytotoxicity)” value: 0.45 nM for the first, 0.37 nM for the second.

Compared with B5, B6 is 1.9-fold lower in “EC50 nM H1650 (tumor cell cytotoxicity)” value: 0.87 nM for the first, 0.47 nM for the second.

Going from B7 to B8, the “EC50 nM H1650 (tumor cell cytotoxicity)” value falls from 5.52 nM to 0.52 nM (11-fold).

B9 and B10 are within 1.5-fold of each other in “EC50 nM H1650 (tumor cell cytotoxicity)” value: 0.85 nM for the first, 0.72 nM for the second.

Going from B11 to B12, the “EC50 nM H1650 (tumor cell cytotoxicity)” value rises from 0.68 nM to 2.4 nM (3.5-fold).

Compared with B13, B14 is 1.6-fold lower in “EC50 nM H1650 (tumor cell cytotoxicity)” value: 1.11 nM for the first, 0.71 nM for the second.

B15 and B16 are within 1.5-fold of each other in “EC50 nM H1650 (tumor cell cytotoxicity)” value: 1.01 nM for the first, 0.79 nM for the second.

B17 and B18 are within 1.5-fold of each other in “EC50 nM H1650 (tumor cell cytotoxicity)” value: 1.35 nM for the first, 1.24 nM for the second.

In the case of B19, the “EC50 nM H1650 (tumor cell cytotoxicity)” value is reported as 2.07 nM.
